The record followed here is publication PMC4872126, “Mechanistic insight into cadmium-induced inactivation of the Bloom protein”.

One data set addresses BLM full-length (human, UniProt P54132 1-1417). As to the kind of experiment: fluorescence anisotropy; IC50 of CdCl2 inhibiting binding (not protein affinity); 200 nM protein, 5 nM DNA; 50 mM Tris-HCl pH 8.0, 50 mM NaCl, 1 mM DTT, 25 C; 200 nM protein, 5 nM 3'-fluorescein DNA. To be noted: protein: recombinant; (Ni-NTA purified); label: 3'-fluorescein. (Polarisation of emitted light reports the rotation of a fluorescent probe.)

Data set [1] addresses T1, BLM642-1290 (human, UniProt P54132 642-1290). The data set is described as above. Particulars: protein: recombinant; label: 3'-fluorescein.
The next data set has as its target RecQ E. coli (Escherichia coli, UniProt P15043 1-609). Described as above. Particulars: protein: recombinant; label: 3'-fluorescein.
In data set [2] the target is T1, BLM642-1290. As to the kind of experiment: fluorescence anisotropy; 0.5 mM NEM, 2 mM DTT, no Cd2+; 50 mM Tris-HCl pH 8.0, 50 mM NaCl, 1 mM DTT, 25 C; 200 nM protein, 5 nM 3'-fluorescein DNA. To be noted: protein: recombinant; label: 3'-fluorescein.

T1 sequence (P54132 642-1290): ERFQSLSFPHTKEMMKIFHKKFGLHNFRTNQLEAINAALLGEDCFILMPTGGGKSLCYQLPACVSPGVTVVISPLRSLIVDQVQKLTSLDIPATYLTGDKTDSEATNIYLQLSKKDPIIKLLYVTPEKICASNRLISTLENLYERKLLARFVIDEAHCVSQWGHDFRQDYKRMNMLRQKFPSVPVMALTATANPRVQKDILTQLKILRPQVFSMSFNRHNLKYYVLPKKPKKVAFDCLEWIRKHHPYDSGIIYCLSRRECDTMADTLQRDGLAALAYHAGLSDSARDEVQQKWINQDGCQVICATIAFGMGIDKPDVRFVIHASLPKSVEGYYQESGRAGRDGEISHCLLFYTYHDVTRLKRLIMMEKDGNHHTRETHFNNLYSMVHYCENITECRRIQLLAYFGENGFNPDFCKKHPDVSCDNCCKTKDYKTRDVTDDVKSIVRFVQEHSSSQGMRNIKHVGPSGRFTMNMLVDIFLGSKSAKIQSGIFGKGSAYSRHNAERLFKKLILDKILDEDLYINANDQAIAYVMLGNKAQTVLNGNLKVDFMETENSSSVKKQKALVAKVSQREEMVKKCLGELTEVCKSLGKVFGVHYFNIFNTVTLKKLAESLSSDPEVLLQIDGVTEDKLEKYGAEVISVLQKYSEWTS
Chain of RecQ E. coli (P15043 whole entry): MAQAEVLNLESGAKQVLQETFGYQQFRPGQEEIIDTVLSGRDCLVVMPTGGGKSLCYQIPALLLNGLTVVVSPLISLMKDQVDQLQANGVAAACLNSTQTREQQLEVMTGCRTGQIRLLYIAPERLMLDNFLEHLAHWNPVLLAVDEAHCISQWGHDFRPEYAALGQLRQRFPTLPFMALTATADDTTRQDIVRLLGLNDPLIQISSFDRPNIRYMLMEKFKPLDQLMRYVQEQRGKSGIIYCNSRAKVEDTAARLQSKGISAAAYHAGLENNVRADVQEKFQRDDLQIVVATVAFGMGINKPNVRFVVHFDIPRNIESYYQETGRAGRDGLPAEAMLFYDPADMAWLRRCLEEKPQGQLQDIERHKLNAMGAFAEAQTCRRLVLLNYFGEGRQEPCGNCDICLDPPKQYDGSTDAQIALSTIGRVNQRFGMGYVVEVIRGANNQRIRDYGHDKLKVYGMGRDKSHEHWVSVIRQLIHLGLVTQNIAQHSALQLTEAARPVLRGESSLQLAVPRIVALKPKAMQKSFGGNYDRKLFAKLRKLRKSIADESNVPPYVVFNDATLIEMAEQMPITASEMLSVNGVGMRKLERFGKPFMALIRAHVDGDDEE
Chain of BLM full-length (P54132 whole entry): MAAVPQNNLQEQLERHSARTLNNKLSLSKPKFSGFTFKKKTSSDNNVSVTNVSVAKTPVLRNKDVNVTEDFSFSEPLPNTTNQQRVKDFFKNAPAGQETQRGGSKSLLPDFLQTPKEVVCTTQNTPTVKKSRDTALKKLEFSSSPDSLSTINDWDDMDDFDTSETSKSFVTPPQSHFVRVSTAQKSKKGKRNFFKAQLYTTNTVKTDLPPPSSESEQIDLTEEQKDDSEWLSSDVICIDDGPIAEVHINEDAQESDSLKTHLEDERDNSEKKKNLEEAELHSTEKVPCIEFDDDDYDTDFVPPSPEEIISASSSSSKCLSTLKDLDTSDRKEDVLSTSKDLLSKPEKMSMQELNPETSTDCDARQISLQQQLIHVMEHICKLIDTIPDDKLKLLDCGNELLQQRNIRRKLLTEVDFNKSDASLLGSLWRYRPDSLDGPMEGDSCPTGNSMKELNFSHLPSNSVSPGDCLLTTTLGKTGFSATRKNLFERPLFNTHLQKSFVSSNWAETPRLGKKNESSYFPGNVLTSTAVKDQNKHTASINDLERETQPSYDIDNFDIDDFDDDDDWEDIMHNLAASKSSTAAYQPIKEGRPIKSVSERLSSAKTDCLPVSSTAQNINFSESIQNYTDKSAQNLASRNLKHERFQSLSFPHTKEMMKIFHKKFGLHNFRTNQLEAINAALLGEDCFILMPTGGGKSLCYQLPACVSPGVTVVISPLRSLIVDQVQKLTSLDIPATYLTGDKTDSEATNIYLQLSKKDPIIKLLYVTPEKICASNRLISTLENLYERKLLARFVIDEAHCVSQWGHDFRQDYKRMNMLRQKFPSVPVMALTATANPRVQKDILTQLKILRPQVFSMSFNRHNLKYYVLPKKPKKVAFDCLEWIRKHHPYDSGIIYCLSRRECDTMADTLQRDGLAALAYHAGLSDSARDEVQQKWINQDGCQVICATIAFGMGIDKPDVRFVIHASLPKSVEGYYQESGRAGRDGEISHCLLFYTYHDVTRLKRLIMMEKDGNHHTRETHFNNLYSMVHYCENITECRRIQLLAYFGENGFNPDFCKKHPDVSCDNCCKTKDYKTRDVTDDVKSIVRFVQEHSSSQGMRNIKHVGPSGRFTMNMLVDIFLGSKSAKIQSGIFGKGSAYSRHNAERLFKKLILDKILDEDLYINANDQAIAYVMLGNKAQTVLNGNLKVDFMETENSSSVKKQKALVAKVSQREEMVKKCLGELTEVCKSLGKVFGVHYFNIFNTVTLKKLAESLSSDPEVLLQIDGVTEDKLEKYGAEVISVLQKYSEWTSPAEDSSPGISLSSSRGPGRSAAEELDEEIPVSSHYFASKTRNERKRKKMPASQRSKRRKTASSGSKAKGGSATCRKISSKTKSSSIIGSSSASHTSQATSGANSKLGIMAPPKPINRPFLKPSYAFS

As a reminder, the IC50 is the concentration needed to halve the response being measured. Take GCCCTGCTGCCGACCAACGAAGGT (ssDNA) [F-24 ss]: the values for the IC50 with BLM full-length, with BLM642-1290 [1] and with RecQ E. coli were 6.63 µM, 10.2 µM and 40.2 µM, respectively.
GCCCTGCTGCCGACCAACGATGGTTACATTCCCGCTGCTG (ssDNA) [F-40]: the half-inhibitory concentration (IC50) with BLM full-length was found to be 6.64 µM; in the data set with BLM642-1290 [1] it was 9.98 µM; with RecQ E. coli, 39.2 µM.
As for GCCTCGCTGCCGTCGCCA (ssDNA) [F-18], the binding result with BLM642-1290 [2] was “binds”.
